# B1: Aerobic respiration control sensor protein ArcB (Escherichia coli (strain K12)), P0AEC3 (parent)
# chain: MKQIRLLAQYYVDLMMKLGLVRFSMLLALALVVLAIVVQMAVTMVLHGQVESIDVIRSIFFGLLITPWAVYFLSVVVEQLEESRQRLSRLVQKLEEMRERDLSLNVQLKDNIAQLNQEIAVREKAEAELQETFGQLKIEIKEREETQIQLEQQSSFLRSFLDASPDLVFYRNEDKEFSGCNRAMELLTGKSEKQLVHLKPADVYSPEAAAKVIETDEKVFRHNVSLTYEQWLDYPDGRKACFEIRKVPYYDRVGKRHGLMGFGRDITERKRYQDALERASRDKTTFISTISHELRTPLNGIVGLSRILLDTELTAEQEKYLKTIHVSAVTLGNIFNDIIDMDKMERRKVQLDNQPVDFTSFLADLENLSALQAQQKGLRFNLEPTLPLPHQVITDGTRLRQILWNLISNAVKFTQQGQVTVRVRYDEGDMLHFEVEDSGIGIPQDELDKIFAMYYQVKDSHGGKPATGTGIGLAVSRRLAKNMGGDITVTSEQGKGSTFTLTIHAPSVAEEVDDAFDEDDMPLPALNVLLVEDIELNVIVARSVLEKLGNSVDVAMTGKAALEMFKPGEYDLVLLDIQLPDMTGLDISRELTKRYPREDLPPLVALTANVLKDKQEYLNAGMDDVLSKPLSVPALTAMIKKFWDTQDDEESTVTTEENSKSEALLDIPMLEQYLELVGPKLITDGLAVFEKMMPGYVSVLESNLTAQDKKGIVEEGHKIKGAAGSVGLRHLQQLGQQIQSPDLPAWEDNVGEWIEEMKEEWRHDVEVLKAWVAKATKK
# partner: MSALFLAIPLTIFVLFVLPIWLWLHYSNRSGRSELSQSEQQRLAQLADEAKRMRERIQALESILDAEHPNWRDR
# B2: Phage shock protein B (Escherichia coli (strain K12)), P0AFM9 (parent)
# chain: B1 partner
# partner: B1 chain
# B3: Aerobic respiration control sensor protein ArcB (Escherichia coli (strain K12)), P0AEC3 (parent)
# chain: B1 chain
# Variants of: B1
# Details: with pspb_ecoli pspB, P0AFM9
row,Variant,effect of a mutation on the interaction
1,L87A;L90A;L94A;M97A,decreasing interaction strength

# Variants of: B2
# Details: with arcb_ecoli arcB, P0AEC3
row,Variant,effect of a mutation on the interaction
1,L10A;L15A;L18A,decreasing interaction strength

# Variants of: B3
# Details: with pspa_ecoli pspA
row,Variant,effect of a mutation on the interaction
1,L87A;L90A;L94A;M97A,decreasing interaction strength

# Reference: IntAct's records for PubMed 19682256
